Among the data in the supplement of paper PMC10567573 are protein stability index values, retold here.

B1: DULLARD (parent)
chain: LVVFTASMEIYGSAVADKLDNSRS
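Further: lentivirally expressed fusions sorted by FACS into six bins by GFP to DsRed ratio, PSI derived from sequencing read proportions per bin multiplied by bin number.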

The variants in the data set derive from B1. The experiment in a line: protein stability index of a GFP-peptide fusion (GPS, HEK-293T) (PSI 1-6); higher = more stable. Conditions: c terminus: a fixed tail appended.
As for LVRFTASMEIYGSAVADKLDNSRS [V3R], the protein stability index is 2.23.
To LVYFTASMEIYGSAVADKLDNSRS [V3Y] belongs 2.68; to LVPFTASMEIYGSAVADKLDNSRS [V3P], 3.51.
As to LVLFTASMEIYGSAVADKLDNSRS [V3L], the protein stability index turned out to be 1.71.
To LVEFTASMEIYGSAVADKLDNSRS [V3E] belongs 2.33; to LVGFTASMEIYGSAVADKLDNSRS [V3G], 2.75; to LVHFTASMEIYGSAVADKLDNSRS [V3H], 2.21.
The same measure for LVTFTASMEIYGSAVADKLDNSRS [V3T]: 1.99; for LVWFTASMEIYGSAVADKLDNSRS [V3W]: 1.56; for LVAFTASMEIYGSAVADKLDNSRS [V3A]: 2.48.
The same measure for LVFFTASMEIYGSAVADKLDNSRS [V3F]: 2.15; for LVCFTASMEIYGSAVADKLDNSRS [V3C]: 2.03.
Turning to LVNFTASMEIYGSAVADKLDNSRS [V3N], the protein stability index turned out to be 2.75.
For the variant LVVFTDSMEIYGSAVADKLDNSRS [A6D], the protein stability index amounted to 1.47.
The same measure for LVVFTHSMEIYGSAVADKLDNSRS [A6H]: 2.33.
To LVVFTTSMEIYGSAVADKLDNSRS [A6T] belongs 2.8; to LVVFTESMEIYGSAVADKLDNSRS [A6E], 1.54.
On to LVVFTISMEIYGSAVADKLDNSRS [A6I], for which the protein stability index worked out at 4.3.
The same measure for LVVFTYSMEIYGSAVADKLDNSRS [A6Y]: 2.47; for LVVFTKSMEIYGSAVADKLDNSRS [A6K]: 1.41; for LVVFTNSMEIYGSAVADKLDNSRS [A6N]: 1.53.
Take LVVFTCSMEIYGSAVADKLDNSRS [A6C]: the protein stability index stood at 2.65.
Turning to LVVFTQSMEIYGSAVADKLDNSRS [A6Q], the protein stability index was found to be 2.02.
To LVVFTRSMEIYGSAVADKLDNSRS [A6R] belongs 2.08; to LVVFTPSMEIYGSAVADKLDNSRS [A6P], 1.43; to LVVFTLSMEIYGSAVADKLDNSRS [A6L], 2.11.
To LVVFTGSMEIYGSAVADKLDNSRS [A6G] belongs 1.57; to LVVFTASYEIYGSAVADKLDNSRS [M8Y], 2.64.
To LVVFTASKEIYGSAVADKLDNSRS [M8K] belongs 1.96.
LVVFTASPEIYGSAVADKLDNSRS [M8P]: the protein stability index is 1.18.
To LVVFTASQEIYGSAVADKLDNSRS [M8Q] belongs 1.49; to LVVFTASCEIYGSAVADKLDNSRS [M8C], 1.14.
The same measure for LVVFTASREIYGSAVADKLDNSRS [M8R]: 1.9.
On to LVVFTASAEIYGSAVADKLDNSRS [M8A], for which the protein stability index is 1.59.
To LVVFTASVEIYGSAVADKLDNSRS [M8V] belongs 2.73.
Consider LVVFTASDEIYGSAVADKLDNSRS [M8D], for which the protein stability index is 2.65.
As for LVVFTASLEIYGSAVADKLDNSRS [M8L], the protein stability index came out at 2.01.
Regarding LVVFTASNEIYGSAVADKLDNSRS [M8N], the protein stability index was 1.65.
The same measure for LVVFTASGEIYGSAVADKLDNSRS [M8G]: 1.31.
To LVVFTASEEIYGSAVADKLDNSRS [M8E] belongs 1.83; to LVVFTASSEIYGSAVADKLDNSRS [M8S], 1.02.
LVVFTASFEIYGSAVADKLDNSRS [M8F]: the protein stability index was 3.03.
The same measure for LVVFTASHEIYGSAVADKLDNSRS [M8H]: 2.98; for LVVFTASTEIYGSAVADKLDNSRS [M8T]: 1.82.
To LVVFTASIEIYGSAVADKLDNSRS [M8I] belongs 4.57.
As to LVVFTASWEIYGSAVADKLDNSRS [M8W], the protein stability index was determined as 1.05.
Turning to LVVFTAPMEIYGSAVADKLDNSRS [S7P], the protein stability index stood at 1.93.
Take LVVFTAVMEIYGSAVADKLDNSRS [S7V]: the protein stability index worked out at 2.27.
LVVFTAFMEIYGSAVADKLDNSRS [S7F]: the protein stability index was determined as 2.06.
To LVVFTANMEIYGSAVADKLDNSRS [S7N] belongs 2.14.
To LVVFTAKMEIYGSAVADKLDNSRS [S7K] belongs 2.07.
Turning to LVVFTAAMEIYGSAVADKLDNSRS [S7A], the protein stability index is 1.85.
To LVVFTAMMEIYGSAVADKLDNSRS [S7M] belongs 2.8.
To LVVFTAGMEIYGSAVADKLDNSRS [S7G] belongs 1.24.
To LVVFTAHMEIYGSAVADKLDNSRS [S7H] belongs 3.69; to LVVFTAIMEIYGSAVADKLDNSRS [S7I], 4.7; to LVVFTATMEIYGSAVADKLDNSRS [S7T], 2.48.
As for LVVFTADMEIYGSAVADKLDNSRS [S7D], the protein stability index is 1.55.
With LVVFTACMEIYGSAVADKLDNSRS [S7C], the protein stability index is 3.12.
To LTVFTASMEIYGSAVADKLDNSRS [V2T] belongs 1.72; to LWVFTASMEIYGSAVADKLDNSRS [V2W], 3.1; to LCVFTASMEIYGSAVADKLDNSRS [V2C], 1.61.
With LIVFTASMEIYGSAVADKLDNSRS [V2I], the protein stability index was determined as 2.18.
The same measure for LNVFTASMEIYGSAVADKLDNSRS [V2N]: 2.5; for LEVFTASMEIYGSAVADKLDNSRS [V2E]: 2.46.
To LMVFTASMEIYGSAVADKLDNSRS [V2M] belongs 2.25; to LKVFTASMEIYGSAVADKLDNSRS [V2K], 1.78.
With LGVFTASMEIYGSAVADKLDNSRS [V2G], the protein stability index came to 2.52.
Regarding LHVFTASMEIYGSAVADKLDNSRS [V2H], the protein stability index is 2.16.
To LLVFTASMEIYGSAVADKLDNSRS [V2L] belongs 1.99.
Regarding LQVFTASMEIYGSAVADKLDNSRS [V2Q], the protein stability index was determined as 1.96.
On to LRVFTASMEIYGSAVADKLDNSRS [V2R], for which the protein stability index was found to be 2.25.
With LDVFTASMEIYGSAVADKLDNSRS [V2D], the protein stability index is 3.02.
The same measure for LPVFTASMEIYGSAVADKLDNSRS [V2P]: 2.93; for LSVFTASMEIYGSAVADKLDNSRS [V2S]: 2.35; for LAVFTASMEIYGSAVADKLDNSRS [V2A]: 2.1.
The same measure for LVVFTASMAIYGSAVADKLDNSRS [E9A]: 2.72.
LVVFTASMCIYGSAVADKLDNSRS [E9C]: the protein stability index was determined as 2.96.
Consider LVVGTASMEIYGSAVADKLDNSRS [F4G], for which the protein stability index was 2.24.
LVVPTASMEIYGSAVADKLDNSRS [F4P]: the protein stability index was 3.61.
For LVVITASMEIYGSAVADKLDNSRS [F4I], the protein stability index turned out to be 3.55.
With LVVHTASMEIYGSAVADKLDNSRS [F4H], the protein stability index came to 2.78.
The same measure for LVVDTASMEIYGSAVADKLDNSRS [F4D]: 2.05.
Regarding LVVYTASMEIYGSAVADKLDNSRS [F4Y], the protein stability index turned out to be 2.93.
The same measure for LVVETASMEIYGSAVADKLDNSRS [F4E]: 2.27.
The same measure for LVVATASMEIYGSAVADKLDNSRS [F4A]: 1.61; for LVVTTASMEIYGSAVADKLDNSRS [F4T]: 1.56.
For LVVNTASMEIYGSAVADKLDNSRS [F4N], the protein stability index came to 2.4.
Take LVVSTASMEIYGSAVADKLDNSRS [F4S]: the protein stability index is 2.34.
The same measure for LVVRTASMEIYGSAVADKLDNSRS [F4R]: 2.14.
To LVVQTASMEIYGSAVADKLDNSRS [F4Q] belongs 2.78; to LVVCTASMEIYGSAVADKLDNSRS [F4C], 1.08.
In the case of LVVWTASMEIYGSAVADKLDNSRS [F4W], the protein stability index worked out at 3.77.
The same measure for LVVKTASMEIYGSAVADKLDNSRS [F4K]: 2.91.
